One molecule from patent US20040253612A1 can be followed below.

Assay [1] addresses anti-myc monoclonal antibody (doped selection experiment). Description: immunoprecipitation from 1:2000 myc:pool (LP154:LP160); PCR, AlwnI digest, phosphorimager; background method 3.
The target is the same in assay [2]. Description: immunoprecipitation from 1:200 myc:pool (LP154:LP160); PCR, AlwnI digest, phosphorimager; background method 3.
The target is the same in assay [3]. Description: second set of digests, method 2; sample equivalent to lane 2 (1:20 myc:pool).
Assay [4] shares this target. Description: immunoprecipitation from 1:200 myc:pool (LP154:LP160); PCR, AlwnI digest, phosphorimager; background method 2.
Assay [5] has the same target. Description: second set of digests, method 2; sample equivalent to lane 3 (1:200 myc:pool).
Assay [6] shares this target. Description: immunoprecipitation from 1:200 myc:pool (LP154:LP160); PCR, AlwnI digest, phosphorimager; background method 1.
Assay [7] has the same target. Put plainly: immunoprecipitation from 1:20 myc:pool (LP154:LP160); PCR, AlwnI digest, phosphorimager; background method 3.
The target is the same in assay [8]. Put plainly: immunoprecipitation; PCR and restriction digest before and after selection.
The target is the same in assay [9]. Description: immunoprecipitation from 1:20 myc:pool (LP154:LP160); PCR, AlwnI digest, phosphorimager; background method 2.
Assay [10] shares this target. Description: immunoprecipitation from 1:2000 myc:pool (LP154:LP160); PCR, AlwnI digest, phosphorimager; background method 2.
Assay [11] has the same target. Put plainly: immunoprecipitation from 1:2000 myc:pool (LP154:LP160); PCR, AlwnI digest, phosphorimager; background method 1.
Assay [12] shares this target. Description: immunoprecipitation from 1:20 myc:pool (LP154:LP160); PCR, AlwnI digest, phosphorimager; background method 1.
Assay [13] has the same target. Put plainly: second set of digests, method 2; sample equivalent to lane 4 (1:2000 myc:pool).

B1: RNA-protein fusion LP154 (long myc template fusion) (peptide)
peptide: MAEEQKLISEEDLLRKRREQLKHKLEQLRNSCA
modifications: C-terminus joined by an amide bond to the 3' puromycin of its own mRNA-DNA linker template LP154 (SEQ ID NO: 3)
As to B1, the Enrichment of Myc Template vs. Pool in assay [1] was determined as 10.2 fold; in [2], 27 fold; in assay [4] it was 43 fold; in assay [6], 16.6 fold; in assay [7], 8.7 fold; in assay [9], 10.4 fold. Also, the results for the Enrichment of Myc Template vs. Pool in assay [10], in assay [11] and in assay [12] were 39 fold, 5.7 fold and 7 fold, respectively. In addition, the enrichment (fold) of myc template vs. pool was 10.7 fold in [3], 38 fold in [5] and 12 fold in assay [13]. In addition, the enrichment (fold) relative to the random library in [8] fell in the range of 20 to 40 fold.
